Assay results from the supplement of paper PMC7125110.
± gives the standard error. For some assays here: Variants at the floor of the assay were thinned out.

B1: glmS ribozyme (parent)
chain: AUAAAAGCGCCAGAACUACAGAAAUGUAGUUGACGAGGAGGAGGUUUAUCGAAUUUUCGGCGGAUGCCUCCAAA

Experiments:
Details in all cases: with glucosamine-6-phosphate
glucosamine-6-phosphate [1] = variants of: B1; assay: kcat; higher = faster cleavage; RNA array
How it was run: (§1)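 Barcoded ribozyme variants were transcribed in situ on sequenced MiSeq chips by E. coli RNA polymerase. At 37 °C, a hybridised Cy3 probe tracked them while glucosamine-6-phosphate (40 μM to 10 mM) in HEPES/KCl/Mg(OAc)2 buffer flowed in and tiles were imaged over ~14 h. Per-tile medians of signals normalised to baseline and to non-cleaving reference variants were fit to one- or two-exponential decays, giving kobs. kcat and KM came from weighted Michaelis–Menten fits across concentrations.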

glucosamine-6-phosphate [2] = variants of: B1; assay: self-cleavage kobs at 640 uM GlcN6P; higher = faster cleavage; RNA array
How it was run: as §1

glucosamine-6-phosphate [3] = variants of: B1; assay: self-cleavage kobs at 2500 uM GlcN6P; higher = faster cleavage; RNA array
How it was run: as §1

glucosamine-6-phosphate [4] = variants of: B1; assay: self-cleavage kobs at 10000 uM GlcN6P; higher = faster cleavage; RNA array
How it was run: as §1

glucosamine-6-phosphate [5] = variants of: B1; assay: KM; higher = weaker cofactor use; RNA array
How it was run: as §1

glucosamine-6-phosphate [6] = variants of: B1; assay: self-cleavage kobs at 40 uM GlcN6P; higher = faster cleavage; RNA array
How it was run: as §1

glucosamine-6-phosphate [7] = variants of: B1; assay: self-cleavage kobs at 160 uM GlcN6P; higher = faster cleavage; RNA array
How it was run: as §1

| Variant | kcat (glucosamine-6-phosphate [1]) [s⁻¹] | self-cleavage kobs at 640 uM GlcN6P (glucosamine-6-phosphate [2]) [s⁻¹] | self-cleavage kobs at 2500 uM GlcN6P (glucosamine-6-phosphate [3]) [s⁻¹] | self-cleavage kobs at 10000 uM GlcN6P (glucosamine-6-phosphate [4]) [s⁻¹] | KM (glucosamine-6-phosphate [5]) [mM] | self-cleavage kobs at 40 uM GlcN6P (glucosamine-6-phosphate [6]) [s⁻¹] | self-cleavage kobs at 160 uM GlcN6P (glucosamine-6-phosphate [7]) [s⁻¹] |
| --- | --- | --- | --- | --- | --- | --- | --- |
| U31G U65C | 0.000173 ± 5.1e-05 | 4.57e-05 ± 1.5e-05 | 6.33e-05 ± 1.4e-05 | 0.000136 ± 2e-05 |  |  |  |
| G43C C67G | 0.000698 ± 0.00015 | 0.000186 ± 3.6e-05 | 0.000454 ± 0.0001 | 0.000541 ± 5.7e-05 | 2.49 ± 1.2 |  |  |
| A39C U46A | 0.000341 ± 6.3e-05 | 5.57e-05 ± 1e-05 | 0.000209 ± 3.4e-05 | 0.000249 ± 3.6e-05 | 2.88 ± 0.98 |  |  |
| A15U G32U | 0.00104 ± 0.0003 | 0.000103 ± 1.2e-05 | 0.000266 ± 2.9e-05 | 0.000628 ± 6.4e-05 | 6.79 ± 2.8 |  |  |
| G62U C70G | 1.57e-05 ± 2.7e-06 |  |  |  |  |  |  |
| U31A A53C | 0.00557 ± 0.0019 | 0.000507 ± 6.9e-05 | 0.00162 ± 0.00025 | 0.00393 ± 0.00053 | 5.3 ± 2.3 | 4.92e-05 ± 9.4e-06 | 0.000229 ± 3.4e-05 |
| U55C C70G | < 1e-05 |  |  |  |  | < 1e-05 |  |
| A6C C68G | < 1e-05 | < 1e-05 |  |  |  | < 1e-05 |  |
| A6U U54C | 0.000261 ± 4.2e-05 | 5.25e-05 ± 1.2e-05 | 0.000165 ± 3.3e-05 | 0.000195 ± 4.6e-05 | 2.26 ± 0.67 |  |  |
| U56G C58U | 0.000147 ± 7.7e-06 |  | 4.08e-05 ± 8.6e-06 | 9.06e-05 ± 8e-06 | 6.31 ± 0.71 |  |  |
| G32U G37A | 4.33e-05 ± 1.3e-05 |  |  | 3.21e-05 ± 6.6e-06 |  |  |  |
| G40A A48U | 0.000176 ± 1.7e-05 | 2.83e-05 ± 8.5e-06 | 9.03e-05 ± 1.2e-05 | 0.000133 ± 1.7e-05 | 2.78 ± 0.59 |  |  |
| C50U A53C U54G | 1.06e-05 ± 9.8e-07 |  |  | < 1e-05 |  |  |  |
| G13A G29A | 0.000248 ± 8.5e-06 |  | 8.32e-05 ± 1.2e-05 | 0.000165 ± 2.4e-05 | 4.98 ± 0.32 |  |  |
| A12G A53U C67U | 0.000372 ± 8.2e-05 |  | 0.00011 ± 1.7e-05 | 0.00022 ± 7.2e-05 | 6.21 ± 2 |  |  |
| U54A U65A | 0.00834 ± 0.0013 | 0.00105 ± 0.00019 | 0.00254 ± 0.00097 | 0.00595 ± 0.00078 | 4.3 ± 1.1 | 0.000105 ± 2.7e-05 |  |
| G59A | 8.71e-05 ± 2.2e-06 | 2.2e-05 ± 1.9e-06 | 5.42e-05 ± 1.8e-06 | 7.42e-05 ± 1.2e-06 | 1.67 ± 0.17 |  |  |
| G7U C16A G37A A53U C71A | 1.25e-05 ± 4.6e-06 |  |  |  |  |  |  |

| Variant | kcat (glucosamine-6-phosphate [1]) [s⁻¹] | self-cleavage kobs at 640 uM GlcN6P (glucosamine-6-phosphate [2]) [s⁻¹] | self-cleavage kobs at 2500 uM GlcN6P (glucosamine-6-phosphate [3]) [s⁻¹] | self-cleavage kobs at 10000 uM GlcN6P (glucosamine-6-phosphate [4]) [s⁻¹] | KM (glucosamine-6-phosphate [5]) [mM] | self-cleavage kobs at 40 uM GlcN6P (glucosamine-6-phosphate [6]) [s⁻¹] | self-cleavage kobs at 160 uM GlcN6P (glucosamine-6-phosphate [7]) [s⁻¹] |
| --- | --- | --- | --- | --- | --- | --- | --- |
| A12G C68G | 3.14e-05 ± 6.3e-06 |  | 4.35e-05 ± 1.8e-05 |  |  |  |  |
| G41U U47A | 0.000627 ± 0.00021 | 0.000232 ± 5.2e-05 | 0.000656 ± 0.00012 | 0.000706 ± 0.00012 |  | 7.19e-05 ± 1.3e-05 | 0.000127 ± 3.9e-05 |
| G13A A53G | 0.00138 ± 0.00018 | 0.00017 ± 2e-05 | 0.000498 ± 5.7e-05 | 0.000981 ± 0.00011 | 4.28 ± 0.82 |  | 6.12e-05 ± 1.3e-05 |
| G29A C67A | 0.00104 ± 0.00036 | 0.000205 ± 3.9e-05 | 0.0005 ± 9.3e-05 | 0.00099 ± 0.00013 |  | 2.96e-05 ± 8.8e-06 | 0.000165 ± 3.2e-05 |
| U31A U55A | 0.0251 ± 0.0036 | 0.00452 ± 0.0014 | 0.00953 ± 0.0034 | 0.0182 ± 0.0035 | 3.81 ± 0.79 |  | 0.000953 ± 0.00022 |
| G29U G38C C58G C68A C71A | 5.03e-05 ± 2.1e-05 |  | 8.03e-05 ± 4e-05 |  |  |  |  |
| C10G U49A | 1.12e-05 ± 2.4e-06 | < 1e-05 |  |  |  | < 1e-05 |  |
| G29C A48C | 1.23e-05 ± 3.5e-06 |  |  |  |  | < 1e-05 | < 1e-05 |
| C34G G38U | < 1e-05 |  |  |  |  |  | < 1e-05 |
| U55G U69A | 0.000144 ± 3.5e-05 | 0.00015 ± 1.9e-05 | 0.00021 ± 2.3e-05 | 9.83e-05 ± 1.7e-05 |  | 4.44e-05 ± 1.1e-05 | 7.03e-05 ± 9.5e-06 |
| C8A C71G | 1.09e-05 ± 3.7e-06 |  |  |  |  |  |  |
| U54C C68A | 2.49e-05 ± 6.3e-06 |  |  |  |  | < 1e-05 |  |
| A12G A15C | 0.000514 ± 0.00013 |  | 7.79e-05 ± 1e-05 | 0.000205 ± 2.2e-05 |  |  |  |
| A14U A53U | 0.00789 ± 0.00051 | 0.00157 ± 0.00019 | 0.00355 ± 0.00044 | 0.00654 ± 0.00056 | 2.54 ± 0.24 | 0.000127 ± 1.2e-05 | 0.000453 ± 9.2e-05 |
| A12U G13A | 0.0015 ± 0.00056 | 8.57e-05 ± 1.1e-05 | 0.000208 ± 3.6e-05 | 0.000715 ± 9.5e-05 |  |  |  |
| U47G A52U | 0.000286 ± 1.4e-05 | 6.99e-05 ± 7.7e-06 | 0.000169 ± 2e-05 | 0.000234 ± 2.6e-05 | 1.95 ± 0.18 |  |  |
| A48U U49G | 1.55e-05 ± 3.7e-06 |  |  |  |  | < 1e-05 |  |
| A14U G29U | 0.000435 ± 4.6e-05 | 0.000104 ± 9.7e-06 | 0.000222 ± 2e-05 | 0.000381 ± 3.2e-05 | 2.04 ± 0.4 | 2.02e-05 ± 9.5e-06 | 3.57e-05 ± 7.2e-06 |
